Results published in publication PMC12582335.

Experiments:
[1] = molecular target: SARS-CoV-2 Wuhan spike protein trimer (AcroBiosystems) (SARS-CoV-2 (Wuhan)) (UniProt P0DTC2); assay: ELISA; spike trimer (Wuhan or Omicron BA.1) or BSA coated on Nunc MaxiSorp plates in carbonate/bicarbonate buffer, 18 h at 4 °C; rCL-11 (CHO) in solution, either titrated on 2 µg/mL spike or 3 µg/mL on a range of spike; detected with rabbit anti-human CL-11 and HRP anti-rabbit IgG
[2] = molecular target: SARS-CoV-2 Omicron BA.1 spike protein trimer (AcroBiosystems) (SARS-CoV-2 (Omicron BA.1)) (UniProt P0DTC2); assay: as above
[3] = molecular target: SARS-CoV-2 Wuhan spike protein trimer (AcroBiosystems) (SARS-CoV-2 (Wuhan)) (UniProt P0DTC2); assay: ELISA; Wuhan spike 2 µg/mL coated; rCL-11 3 µg/mL with L-fucose or D-galactose (0 to 200 mM) or 20 mM EDTA, 18 h at 4 °C

recombinant collectin-11 (rCL-11), CHO-expressed (from UniProt Q9BWP8 26-271) (natural protein)
EC50 [1]: 7.6 nM
EC50 [2]: 6 nM
percent inhibition by L-fucose [3]: > 90%
